This test deals with T1, hK1 (human tissue kallikrein 1), recombinant (human, UniProt P06870 25-262).
T1 construct: Expressed in P. pastoris from KLK1 cDNA and purified; enzymatically active; also called KLK1; Recombinant (Pichia) Kallikrein
The test can be described thus: SPR. In general terms: SPR reads the build-up and loss of mass on a sensor chip optically.

B1: M0115-F08 (Fab, V domains shown)
VH: EVQLLESGGGLVQPGGSLRLSCAASGFTFSHYVMVWVRQAPGKGLEWVSSIYPSGGMTVYADSVKGRFTISRDNSKNTLYLQMNSLRAEDTAVYYCARRGIANSFNIWGQGTMVTVSS
VL: AQSELTQPASVSGSPGQSITISCTGTSSDVGGYNYVSWYQQHPGKAPKLMIYEVSNRPSGVSNRFSGSKSGNTASLTISGLQAEDEADYYCSSYTSSSTWVFGGGTKLTVLG
In the case of B1, the Kd – broadly, the concentration at which binding is half-saturated – stood at 32.6 nM; the dissociation rate constant (koff) (in general, the first-order rate constant of dissociation) is 0.0158 s⁻¹; the kon (as a rule, the second-order rate constant of association) is 484000 M⁻¹ s⁻¹.

B2: M0103-E09 (Fab, V domains shown)
VH: EVQLLESGGGLVQPGGSLRLSCAASGFTFSHYSMLWVRQAPGKGLEWVSSIRPSGGFTKYADSVKGRFTISRDNSKNTLYLQMNSLRAEDTAVYYCARRGVWDAFDIWGQGTMVTVSS
VL: AQYELTQPASVSGSPGQSITISCTGTNTDVGGYNFVSWYQQYPGKAPKLIIFDVTNRPSGVSNRFSGSKSGNTASLTISGLQAEDEADYYCCSYTNTNTLVFAGGTKVTVLG
With B2, the Kd is 36.4 nM, the koff was found to be 0.00884 s⁻¹ and the association rate constant (kon) was 243000 M⁻¹ s⁻¹.

B3: M0136-B06 (Fab, V domains shown)
VH: EVQLLESGGGLVQPGGSLRLSCAASGFTFSSYIMIWVRQAPGKGLEWVSYIRPSGGYTKYADSVKGRFTISRDNSKNTLYLQMNSLRAEDTAVYYCARVINAGPGRGYYWRGYSYSDAFDIWGQGTMVTVSS
VL: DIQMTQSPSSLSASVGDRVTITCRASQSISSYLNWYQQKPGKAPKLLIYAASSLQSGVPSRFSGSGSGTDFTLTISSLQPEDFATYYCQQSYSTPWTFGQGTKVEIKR
Take B3: the dissociation constant Kd is 33 nM, the koff was found to be 0.00661 s⁻¹ and the kon came out at 200000 M⁻¹ s⁻¹.

B4: M0121-H07 (Fab, V domains shown)
VH: EVQLLESGGGLVQPGGSLRLSCAASGFTFSKYYMVWVRQAPGKGLEWVSVIGPSGGWTTYADSVKGRFTISRDNSKNTLYLQMNSLRAEDTAVYYCARVDYSNYFDYWGQGTLVTVSS
VL: DIQMTQSPSSLSASVGDRVTITCRASQSISRYLNWYQQKPGKAPKLLIYAASNLQSGVPSRFSGSGSGRDYTLTISSLQPEDFVTYYCQQSYSTPWTFGQGTKVEIKR
With B4, the dissociation constant Kd was determined as 32.8 nM, the koff stood at 0.0055 s⁻¹ and the kon amounted to 168000 M⁻¹ s⁻¹.

B5: M0124-A01 (Fab, V domains shown)
VH: EVQLLESGGGLVQPGGSLRLSCAASGFTFSNYPMYWVRQAPGKGLEWVSRIGPSGGHTDYADSVKGRFTISRDNSKNTLYLQMNSLRAEDTAVYYCARAGVWSGLDYWGQGTLVTVSS
VL: DIQMTQSPSSLSASVGDRVTITCRASQSITGYLNWYQQKPGKAPKLLIYAASSLQSGVPSRFSGSGSGTDFTLSISSLQPEDFATYYCQQSYSTPYTFGQGTKLEIKR
As to B5, the Kd worked out at 33.9 nM, the off-rate (koff) came to 0.0114 s⁻¹ and the kon was 336000 M⁻¹ s⁻¹.

B6: M0115-F04 (Fab, V domains shown)
VH: EVQLLESGGGLVQPGGSLRLSCAASGFTFSNYLMGWVRQAPGKGLEWVSSIGPSGGYTKYADSVKGRFTISRDNSKNTLYLQMNSLRAEDTAVYYCARGTGTTFFWGQGTLVTVSS
VL: AQSALTQPPSVSVSPGQTVSITCSGDDLGGRHVSWFQQLSGQSPVLVIYQDDKRPSGIPERFSGSNSGNTATLTISGTQSVDEGDYYCLAWHNYKYVFGSGTTVTVLR
Take B6: the Kd came to 41.6 nM, the koff was 0.0131 s⁻¹ and the kon was determined as 314000 M⁻¹ s⁻¹.

B7: M0118-E07 (Fab, V domains shown)
VH: EVQLLESGGGLVQPGGSLRLSCAASGFTFSHYPMDWVRQAPGKGLEWVSRIYPSGGATKYADSVKGRFTISRDNSKNTLYLQMNSLRAEDTATYYCARGGGAFDIWGQGTMVTVSS
VL: DIQMTQSPSSLSASVGDRVTITCRASQGISNYLAWYQQKPGKVPKLLIYAASTLQSGVPSRFSGSGSGTDFTLTISSLQPEDVATYYCQKYNSAPLTFGGGTKVEIKR
Turning to B7, the Kd was 31.8 nM, the koff was found to be 0.0871 s⁻¹ and the on-rate constant (kon) was 2.74e+06 M⁻¹ s⁻¹.

B8: M0102-C12 (Fab, V domains shown)
VH: EVQLLESGGGLVQPGGSLRLSCAASGFTFSHYLMGWVRQAPGKGLEWVSVIWPSGGITKYADSVKGRFTISRDNSKNTLYLQMNSLRAEDTAVYYCARGNGGFDSWGQGTLVTVSS
VL: DIQMTQSPSSLSASVGDRVTITCRASQGISNYLAWYQQKPGKVPKLLIYAASTLQSGVPSRFSGSGSGTDFTLTISSLQPEDVATYYCQKYNSAPWTFGQGTKVEIKR
For B8, the Kd was found to be 35.4 nM, the koff was found to be 2.62 s⁻¹ and the kon came to 7.39e+07 M⁻¹ s⁻¹.

B9: M0124-C12 (Fab, V domains shown)
VH: EVQLLESGGGLVQPGGSLRLSCAASGFTFSWYTMQWVRQAPGKGLEWVSRIYSSGGGTYYADSVKGRFTISRDNSKNTLYLQMNSLRAEDTAMYYCARVGPWGAFDIWGQGTMVTVSS
VL: DIQMTQSPGTLSLSPGERATLSCRASQSVSSNYLAWYQQKPGKAPKLLIYAASSLQSGVPSRFSGSGSGTDFTLTISSLQPEDFATYYCQQRWTFGQGTKVEIKR
For the molecule B9, the Kd is 32.5 nM, the koff was 0.126 s⁻¹ and the on-rate (kon) turned out to be 3.89e+06 M⁻¹ s⁻¹.

B10: M0131-F12 (Fab, V domains shown)
VH: EVQLLESGGGLVQPGGSLRLSCAASGFTFSRYAMGWVRQAPGKGLEWVSYIGPSGGNTTYADSVKGRFTISRDNSKNTLYLQMNSLRAEDTAVYYCARDVGGSGSYYMLSYYYYGMDVWGQGTMVTVSS
VL: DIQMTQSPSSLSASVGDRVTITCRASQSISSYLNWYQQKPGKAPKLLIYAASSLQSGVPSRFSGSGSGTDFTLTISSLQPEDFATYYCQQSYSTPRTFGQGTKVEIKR
Regarding B10, the dissociation constant Kd was 37 nM, the koff was found to be 0.00472 s⁻¹ and the association rate constant (kon) is 128000 M⁻¹ s⁻¹.

B11: M0093-E11 (Fab, V domains shown)
VH: EVQLLESGGGLVQPGGSLRLSCAASGFTFSHYEMAWVRQAHGKGLEWVSVIYPSGGATRYADSVKGRFTISRDNSKNTLYLQMNSLRAEDTAVYYCARVAQYYGMDVWGQGTTVTVSS
VL: DIQMTQSPATLSLSPGERATLSCRASQSVSSYLAWYQQKPGQAPRLLIYDASNRATGIPARFSGSGSGTDFTLTISSLEPEDFAVYYCQQRSNWLTFGGGTKVEIKR
As for B11, the Kd amounted to 32.4 nM, the koff amounted to 0.0436 s⁻¹ and the kon was found to be 1.34e+06 M⁻¹ s⁻¹.

B12: M0107-B05 (Fab, V domains shown)
VH: EVQLLESGGGLVQPGGSLRLSCAASGFTFSHYLMMWVRQAPGKGLEWVSSIRSSGGITRYADSVKGRFTISRDNSKNTLYLQMNSLRAEDTAVYYCARVGYYYGMDVWGQGTTVTVSS
VL: AQSELTQPASVSGSPGQSITISCTGTSSDVGAYNYVSWYQQHPGKVPKLMIYEVSNRPSGVSNRFSGSKSGNTASLTISGLQAEDEADYYCNSYTTSATLVFGGGTKLTVLS
With B12, the Kd amounted to 33.8 nM, the off-rate constant (koff) was 0.0203 s⁻¹ and the association rate constant (kon) is 600000 M⁻¹ s⁻¹.

B13: M0097-F08 (Fab, V domains shown)
VH: EVQLLESGGGLVQPGGSLRLSCAASGFTFSNYPMVWVRQAPGKGLEWVSVIGPSGGKTKYADSVKGRFTISRDNSKNTLYLQMNSLRAEDTAVYYCARVGVWYGMDVWGQGTTVTVSS
VL: DIQMTQSPSTLSASVGDRVTISCRASQGIGTHLNWYQQKLGNVPKLLIYAASGLQSGVPPRFSGSGSGTDFTLTISSLHPEDSATYFCQQSYSVPRTFGQGTKVEIKR
For the molecule B13, the Kd is 33.1 nM, the dissociation rate constant (koff) was 0.0117 s⁻¹ and the on-rate (kon) was found to be 353000 M⁻¹ s⁻¹.

B14: M0093-C08 (Fab, V domains shown)
VH: EVQLLESGGGLVQPGGSLRLSCAASGFTFSRYPMGWVRQAPGKGLEWVSSIYPSGGSTYYADSVKGRFTISRDNSKNTLYLQMNSLRAEDTAVYYCARVGVWYGMDVWGQGTTVTVSS
VL: DIQMTQSPGTLSLSPGERATLSCRASQSVSSSYLAWYQQKPGQAPRLLIFAASTRATGIPDRFSGSGSATDFTLTISSLEPEDFAVYYCQQRSNWPPELTFSGGTKVEIKR
With B14, the equilibrium dissociation constant (Kd) was 40.7 nM, the dissociation rate constant (koff) turned out to be 0.00578 s⁻¹ and the association rate constant (kon) came to 142000 M⁻¹ s⁻¹.

Values taken from patent publication US7329737 (DYAX, dated 2008).
